Data on three proteins can be found in PMC3328451, “Mycobacterium tuberculosis Rv3586 (DacA) Is a Diadenylate Cyclase That Converts ATP or ADP into c-di-AMP” (PLoS ONE, 2012).

Data set [1] concerns the molecule itself. The data set is described as follows: AUC; sedimentation velocity, 4°C, 10% glycerol in PBS; DacA and DacA_(1–287) at 40 000 rpm, DacA_(140–358) at 50 000 rpm; mass by the c(M) method in SEDFIT.
The data set “SEC” deals with the molecule itself. The experiment in a line: SEC.
Data set [2] concerns the molecule itself. The experiment in a line: cross-linking; 1.5 µM protein in 50 mM sodium phosphate pH 7.4, 20% glycerol, 5 mM MgCl2, with 35 mM glutaraldehyde for 1 h at room temperature; SDS-PAGE and Western blot with the anti-DacA antibody. In general terms: Immunoblotting shows a protein as a band on a membrane.

One may read the stoichiometry N as a count of units in the complex or per binding partner.

B1: DacA_(1–287) (domain or fragment)
chain: MHAVTRPTLREAVARLAPGTGLRDGLERILRGRTGALIVLGHDENVEAICDGGFSLDVRYAATRLRELCKMDGAVVLSTDGSRIVRANVQLVPDPSIPTDESGTRHRSAERAAIQTGYPVISVSHSMNIVTVYVRGERHVLTDSATILSRANQAIATLERYKTRLDEVSRQLSRAEIEDFVTLRDVMTVVQRLELVRRIGLVIDYDVVELGTDGRQLRLQLDELLGGNDTARELIVRDYHANPEPPSTGQINATLDELDALSDGDLLDFTALAKVFGYPTTTEAQDS
notes: also called first 287 aa of DacA; DacA lacking the C-terminal HhH domain
In the case of B1, in data set [1], the “stoichiometry N” value came to 4.

B2: Mycobacterium tuberculosis Rv3586 (DacA) (enzyme)
chain: MHAVTRPTLREAVARLAPGTGLRDGLERILRGRTGALIVLGHDENVEAICDGGFSLDVRYAATRLRELCKMDGAVVLSTDGSRIVRANVQLVPDPSIPTDESGTRHRSAERAAIQTGYPVISVSHSMNIVTVYVRGERHVLTDSATILSRANQAIATLERYKTRLDEVSRQLSRAEIEDFVTLRDVMTVVQRLELVRRIGLVIDYDVVELGTDGRQLRLQLDELLGGNDTARELIVRDYHANPEPPSTGQINATLDELDALSDGDLLDFTALAKVFGYPTTTEAQDSTLSPRGYRAMAGIPRLQFAHADLLVRAFGTLQGLLAASAGDLQSVDGIGAMWARHVREGLSQLAESTISDQ
notes: also called native DacA; not shown: His tag, C-terminal, kept
Turning to B2, the “stoichiometry N” value in the data set “SEC” stood at 8.

B3: DacA_(140–358) (domain or fragment)
chain: VLTDSATILSRANQAIATLERYKTRLDEVSRQLSRAEIEDFVTLRDVMTVVQRLELVRRIGLVIDYDVVELGTDGRQLRLQLDELLGGNDTARELIVRDYHANPEPPSTGQINATLDELDALSDGDLLDFTALAKVFGYPTTTEAQDSTLSPRGYRAMAGIPRLQFAHADLLVRAFGTLQGLLAASAGDLQSVDGIGAMWARHVREGLSQLAESTISDQ
notes: also called last 219 aa of DacA; DacA lacking the N-terminal Dac domain
In the case of B3, the “stoichiometry N” value in data set [2] was 2.
